Results reported in PMC11099347 (Cell Genomics, 2024).
One block for each binder: values may come before it.

Target: T1, GST-tagged wild-type NRDE2 (human, UniProt Q9H7Z3 1-1164)
T1 sequence: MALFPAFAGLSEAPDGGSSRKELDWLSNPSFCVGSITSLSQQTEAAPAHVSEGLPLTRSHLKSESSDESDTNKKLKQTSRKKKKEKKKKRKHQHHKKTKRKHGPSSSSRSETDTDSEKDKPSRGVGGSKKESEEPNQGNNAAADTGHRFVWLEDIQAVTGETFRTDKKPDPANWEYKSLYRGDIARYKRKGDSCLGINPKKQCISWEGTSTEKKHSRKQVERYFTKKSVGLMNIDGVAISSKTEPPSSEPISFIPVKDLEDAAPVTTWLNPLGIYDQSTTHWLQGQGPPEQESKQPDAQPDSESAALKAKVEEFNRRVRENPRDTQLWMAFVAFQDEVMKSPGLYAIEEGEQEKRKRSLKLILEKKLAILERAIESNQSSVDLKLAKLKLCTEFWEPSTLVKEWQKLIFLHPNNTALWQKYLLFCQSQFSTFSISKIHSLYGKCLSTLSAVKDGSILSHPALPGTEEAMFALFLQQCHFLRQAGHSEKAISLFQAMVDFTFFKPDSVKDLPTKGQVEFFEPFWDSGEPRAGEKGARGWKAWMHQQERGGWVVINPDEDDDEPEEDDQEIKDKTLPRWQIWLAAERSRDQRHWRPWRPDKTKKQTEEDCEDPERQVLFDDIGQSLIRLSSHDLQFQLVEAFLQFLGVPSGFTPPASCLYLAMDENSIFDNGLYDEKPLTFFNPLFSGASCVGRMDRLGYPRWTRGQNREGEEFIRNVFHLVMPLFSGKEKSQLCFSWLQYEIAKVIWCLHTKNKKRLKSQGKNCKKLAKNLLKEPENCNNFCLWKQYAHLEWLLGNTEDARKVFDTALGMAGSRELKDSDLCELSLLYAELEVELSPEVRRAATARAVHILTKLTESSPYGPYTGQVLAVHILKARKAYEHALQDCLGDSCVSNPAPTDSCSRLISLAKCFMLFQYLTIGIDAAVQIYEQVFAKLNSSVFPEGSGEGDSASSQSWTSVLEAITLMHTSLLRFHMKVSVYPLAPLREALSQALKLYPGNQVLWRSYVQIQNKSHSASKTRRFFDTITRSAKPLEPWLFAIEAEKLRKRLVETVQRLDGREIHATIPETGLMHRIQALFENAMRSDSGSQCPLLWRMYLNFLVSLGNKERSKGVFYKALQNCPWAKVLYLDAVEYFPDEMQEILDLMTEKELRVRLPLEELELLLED
Experiment: pull-down

binding result: binds
B1: His-tagged CK2A2 (natural protein)
chain: MPGPAAGSRARVYAEVNSLRSREYWDYEAHVPSWGNQDDYQLVRKLGRGKYSEVFEAINITNNERVVVKILKPVKKKKIKREVKILENLRGGTNIIKLIDTVKDPVSKTPALVFEYINNTDFKQLYQILTDFDIRFYMYELLKALDYCHSKGIMHRDVKPHNVMIDHQQKKLRLIDWGLAEFYHPAQEYNVRVASRYFKGPELLVDYQMYDYSLDMWSLGCMLASMIFRREPFFHGQDNYDQLVRIAKVLGTEELYGYLKKYHIDLDPHFNDILGQHSRKRWENFIHSENRHLVSPEALDLLDKLLRYDHQQRLTAKEAMEHPYFYPVVKEQSQPCADNAVLSSGLTAAR

binding result: binds
B2: His-tagged CK2B (natural protein)
chain: not shown
